Reference: patent US20130209454A1
Substitutions are numbered along the chain they refer to. In names and notes the source's numbering stands.

How the values were obtained:
[1] = target: HIV-1 Env of strain CAP210.2.00.E8 (HIV-1); experiment: cell-based or functional assay
[2] = target: HIV-1 Env of strain Du172.17 (HIV-1); experiment: cell-based or functional assay
[3] = target: HIV-1 Env of strain TRO.11 (HIV-1); experiment: cell-based or functional assay
[4] = target: HIV-1 Env of strain SC422661.8 (HIV-1); experiment: cell-based or functional assay
[5] = target: HIV-1 Env of strain AC10.0.29 (HIV-1); experiment: cell-based or functional assay
[6] = target: HIV-1 Env of strain CAP45.2.00.G3 (HIV-1); experiment: cell-based or functional assay
[7] = target: Q259.d2.17 gp120 core (HIV-1)
[8] = target: 93TH057 gp120 core (HIV-1)
[9] = target: CAP244.2.00.D3 gp120 core (HIV-1)
[10] = target: Env of HIV-1 strain CAP45.2.00.G3 (HIV-1); experiment: cell-based or functional assay
[11] = target: Env of HIV-1 strain SC422661.8 (HIV-1); experiment: cell-based or functional assay
[12] = target: the viral strains including SC422661.8, TRO0.11, CAP45.2.00G3, CAP210.2.00E8, Du172.17, and AC10.0.29; experiment: cell-based or functional assay
[13] = target: Env of HIV-1 strain CAP210.2.00.E8 (HIV-1); experiment: cell-based or functional assay
[14] = target: Env of HIV-1 strain TRO.11 (HIV-1); experiment: cell-based or functional assay
[15] = target: Env of HIV-1 strain AC10.0.29 (HIV-1); experiment: cell-based or functional assay
[16] = target: Env of HIV-1 strain Du172.17 (HIV-1); experiment: cell-based or functional assay
[17] = target: HIV-1 strain CAP210.2.00.E8 envelope (gp120) (HIV-1); experiment: cell-based or functional assay
[18] = target: HIV-1 strain AC10.0.29 envelope (gp120) (HIV-1); experiment: cell-based or functional assay
[19] = target: HIV-1 strain Du172.17 envelope (gp120) (HIV-1); experiment: cell-based or functional assay
[20] = target: HIV-1 strain SC422661.8 envelope (gp120) (HIV-1); experiment: cell-based or functional assay
[21] = target: HIV-1 strain CAP45.2.00.G3 envelope (gp120) (HIV-1); experiment: cell-based or functional assay
[22] = target: HIV-1 strain TRO.11 envelope (gp120) (HIV-1); experiment: cell-based or functional assay

B1: NIH45-46 G54I IgG (antibody, name in Kabat numbering, V domains shown)
VH: QVRLSQSGGQMKKPGESMRLSCRASGYEFLNCPINWIRLAPGRRPEWMGWLKPRIGAVNYARKFQGRVTMTRDVYSDTAFLELRSLTSDDTAVYFCTRGKYCTARDYYNWDFEHWGRGAPVTVSS
VL: EIVLTQSPATLSLSPGETAIISCRTSQSGSLAWYQQRPGQAPRLVIYSGSTRAAGIPDRFSGSRWGADYNLSISNLESGDFGVYYCQQYEFFGQGTKVQVDI
neutralization IC50 [1]: > 50 µg/mL | neutralization IC50 [2]: > 50 µg/mL | neutralization IC50 [3]: 10 µg/mL | neutralization IC50 [4]: 0.1 µg/mL | neutralization IC50 [5]: 8.6 µg/mL | neutralization IC50 [6]: > 50 µg/mL

B2: NIH45-46 G54L IgG (antibody, name in Kabat numbering, V domains shown)
VH: B1 VH with I55L
VL: B1 VL
neutralization IC50 [1]: > 50 µg/mL | neutralization IC50 [2]: > 50 µg/mL | neutralization IC50 [3]: 0.3 µg/mL | neutralization IC50 [4]: 0.1 µg/mL | neutralization IC50 [5]: 1.7 µg/mL | neutralization IC50 [6]: > 50 µg/mL

B3: NIH45-46^G54W Fab (C-terminal 6x-His tagged heavy chain, SPR) (Fab, V domains shown)
VH: B1 VH with I55W
VL: B1 VL
Kd [7]: 48 nM | koff [7]: 0.0017 s⁻¹ | kon [7]: 34000 M⁻¹ s⁻¹ | Kd [8]: 63 nM | koff [8]: 0.0016 s⁻¹ | kon [8]: 26000 M⁻¹ s⁻¹ | Kd [9]: 37 nM | kon [9]: 22000 M⁻¹ s⁻¹

B4: NIH45-46 G54M IgG (antibody, name in Kabat numbering, V domains shown)
VH: B1 VH with I55M
VL: B1 VL
neutralization IC50 [1]: > 50 µg/mL | neutralization IC50 [2]: > 50 µg/mL | neutralization IC50 [3]: 0.3 µg/mL | neutralization IC50 [4]: 0.06 µg/mL | neutralization IC50 [5]: 1.5 µg/mL | neutralization IC50 [6]: > 50 µg/mL

B5: NIH45-46 G54H IgG (antibody, name in Kabat numbering, V domains shown)
VH: B1 VH with I55H
VL: B1 VL
neutralization IC50 [1]: > 50 µg/mL | neutralization IC50 [2]: > 50 µg/mL | neutralization IC50 [3]: 0.2 µg/mL | neutralization IC50 [4]: 0.09 µg/mL | neutralization IC50 [5]: 0.6 µg/mL | neutralization IC50 [6]: > 50 µg/mL

B6: 3BNC60 (antibody, V domains shown)
VH: QVHLSQSGAAVTKPGASVRVSCEASGYKISDHFIHWWRQAPGQGLQWVGWINPKTGQPNNPRQFQGRVSLTRQASWDFDTYSFYMDLKAVRSDDTAIYFCARQRSDFWDFDVWGSGTQVTVSS
VL: DIQMTQSPSSLSARVGDTVTITCQANGYLNWYQQRRGKAPKLLIYDGSKLERGVPARFSGRRWGQEYNLTINNLQPEDVATYFCQVYEFIVPGTRLDLKRTVA
IC50 [10]: 43.2 µg/mL | IC50 [11]: 0.042 µg/mL | IC50 (averaged across the strains) [12]: 0.3 µg/mL | IC50 [13]: 10.6 µg/mL | IC50 [14]: 0.018 µg/mL | IC50 [15]: > 50 µg/mL | IC50 [16]: 1.4 µg/mL

B7: 12A12^Y54W IgG (antibody, name in Kabat numbering, V domains shown)
VH: SQHLVQSGTQVKKPGASVRISCQASGYSFTDYVLHWWRQAPGQGLEWMGWIKPVWGARNYARRFQGRINFDRDIYREIAFMDLSGLRSDDTALYFCARDGSGDDTSWHLDPWGQGTLVIVSA
VL: DIQMTQSPSSLSASVGDRVTITCQAGQGIGSSLQWYQQKPGKAPKLLVHGASNLHRGVPSRFSGSGFHTTFSLTISGLQRDDFATYFCAVLEFFGPGTKVEIKR
neutralization IC50 [17]: > 50 µg/mL | neutralization IC50 [18]: 0.5 µg/mL | neutralization IC50 [19]: 0.1 µg/mL | neutralization IC50 [20]: 0.2 µg/mL | neutralization IC50 [21]: 0.2 µg/mL | neutralization IC50 [22]: 0.2 µg/mL

B8: 3BNC55 T54W IgG (antibody, name in Kabat numbering, V domains shown)
VH: QVQLVQSGTAVKRPGASVRVSCQASGYTFTDYFIYWWRQAPGQGLEWLGWINPLWSQPSYPSRFQGRLTLTRDTFDEMLYMDLRGLRSDDTGIYFCARRHSDYCDFDIWGSGTQIIVSS
VL: DIQMTQSPSSLSASVGDKVTITCQTSAGYLNWYQQRRGRAPKLLMYDGSRLVTGVPSRFSGRRWGTQYNLTIGSLQPEDIATYYCQVYEFFGPGTRLDLKS
neutralization IC50 [17]: > 50 µg/mL | neutralization IC50 [18]: > 50 µg/mL | neutralization IC50 [19]: > 50 µg/mL | neutralization IC50 [20]: 0.6 µg/mL | neutralization IC50 [21]: > 50 µg/mL | neutralization IC50 [22]: > 50 µg/mL
